Results reported in patent publication US5550213A, “Inhibitors of urokinase plasminogen activator” (Rutgers, The State University of New Jersey, priority 1993, dated 1996).
Like-named read-outs stand apart in the source and are kept apart here. Where no end group is shown, it is not given here.

Key:
urokinase (UK) [1] = target: T1, urokinase (UK) (Homo sapiens, UniProt P00749); experiment: Ki of inhibitors against urokinase, fractional enzyme activity assay (Empie and Laskowski) with chromogenic substrate S-2288; format: biochemical; set-up: purchased Abbott Pharmaceuticals
Description: Fractional enzyme activities for each inhibitor-UK interaction of the above discussed inhibitors were determined by the assay method of Empie and Laskowski (Empie, M. W. et al., Biochem. 21:2274-2284 (1982)), as adapted from Green and Work (Green, N. M. et al., Biochem. J. 54:347-352 (1953)). The concentration of UK used for these reactions was 35 nM. The reactions were carried out in Buffer C. The concentration of the chromogenic substrate used with UK in these assays (S-2288, KabiGen) was […], which is one tenth of the Km of the substrate for UK. Km was determined by a Michaelis-Menten analysis, using a 100-fold range of substrate concentration in Buffer C, and determined to be 4×10^-4 M. Ki values were calculated as the slope of a plot of [I]o /(1-a) vs. 1/a ("a" represents residual enzyme activity) using a variation of the formulas derived by Henderson (Pratt, C. W. et al., Biochem. 26:2855-2863 (1987)). […] These five mutants include the four detailed above(88, 89, 80, AND 91), and also a mutant with arginine at the P1 site of OM3TKY (P1-Arg). […] "ND" means not determined.
Ki values for the wild-type and mutant inhibitors versus urokinase were also determined by non-linear regression of the following equation: [formula]
The non-linear regression was done using the program Enzfitter, by Robin Leatherbarrow. […] Enzyme and inhibitor concentrations used were determined as mentioned above.

urokinase (UK) [2] = target: T1, urokinase (UK); details: from Turpeinen et al. (PSTI), Christensen et al. (PAI-2); serpin Ki not functionally comparable to reversible inhibitors; read-out: Ki (nM) against UK, values obtained from the literature; cited from earlier work

Row | Ki (urokinase (UK) [1]; non-linear regression with Enzfitter, read-out: Ki (nM), Ki VALUES OBTAINED BY NON-LINEAR REGRESSION FOR INHIBITORS AGAINST UK) [nM] | inhibitory activity against UK (urokinase (UK) [1]; statement on Table 5) | Substance | Ki (urokinase (UK) [2]) [nM]
1 | 1790 ± 415 | virtually no inhibitory activity | P1-Arg: mutant with arginine at the P1 site of OM3TKY (VDCSEYPKPACTREYRPLCGSDNKTYGNKCNFCNAVVESNGTLTLSHFGKC) | –
2 | – | – | PSTI: native Pancreatic Secretory Trypsin Inhibitor, a Kazal-type inhibitor from humans (DSLGREAKCYNELNGCTKIYDPVCGTDGNTYPNECVLCFENRKRQTSILIQKSGPC; ends and bridges not checked; cysteine pairing not given here; UniProt P00995 24-79, looked up) [reference compound] | 300
